Holding throughout (settings): remark: other sources report otherwise
In assay [1] the target is recombinant homotrimeric HA A/South Carolina/1/18 H1N1 (Influenza A virus A/South Carolina/1/18 (H1N1)). As to the kind of experiment: protein microarray, purified IgG, trimeric HA.
Assay [2] addresses recombinant homotrimeric HA A/northern shoveler/California/HKWF115/07 H6N4 (Influenza A virus A/northern shoveler/California/HKWF115/2007(H6N1)). As to the kind of experiment: protein microarray, purified IgG, trimeric HA.
For assay [3], the target named is recombinant homotrimeric HA A/Hong Kong/1073/99 H9N2 (Influenza A virus A/Hong Kong/1073/99 (H9N2)). As to the kind of experiment: protein microarray, purified IgG, trimeric HA.
Assay [4] addresses recombinant homotrimeric HA A/Solomon Islands/3/06 H1N1 (Influenza A virus A/Solomon Islands/3/2006(H1N1)). As to the kind of experiment: protein microarray, purified IgG, trimeric HA.
The target of assay [5] is recombinant homotrimeric HA A/Hong Kong/2108/03 H9N2 (Influenza A virus A/HK/2108/2003(H9N2)). As to the kind of experiment: protein microarray, purified IgG, trimeric HA.
Assay [6] has as its target recombinant homotrimeric HA A/California/4/09 H1N1 (Influenza A virus A/California/04/2009(H1N1)). As to the kind of experiment: protein microarray, purified IgG, trimeric HA.
For assay [7], the target named is recombinant homotrimeric HA A/Anhui/1/05 H5N1 (Influenza A virus A/Anhui/1/2005(H5N1)). As to the kind of experiment: protein microarray, purified IgG, trimeric HA.
The target in assay [8] is recombinant homotrimeric HA A/Wisconsin/67/05 H3N2 (Influenza A virus A/Wisconsin/67/2005(H3N2)). As to the kind of experiment: protein microarray, purified IgG, trimeric HA.
The target in assay [9] is recombinant homotrimeric HA A/Vietnam/1203/04 H5N1 (Influenza A virus A/VietNam/1203/2004(H5N1)). As to the kind of experiment: protein microarray, purified IgG, trimeric HA.
The target of assay [10] is recombinant homotrimeric HA A/chicken/Vietnam/NCVD-016/08 H5N1 (Influenza A virus A/chicken/Vietnam/NCVD-016/2008(H5N1)). As to the kind of experiment: protein microarray, purified IgG, trimeric HA.
In assay [11] the target is recombinant homotrimeric HA A/Hong Kong/156/97 H5N1 (Influenza A virus A/Hong Kong/156/97 (H5N1)). As to the kind of experiment: protein microarray, purified IgG, trimeric HA.
Assay [12] deals with recombinant homotrimeric HA A/Netherlands/219/03 H7N7 (Influenza A virus A/Netherlands/219/03(H7N7)). As to the kind of experiment: protein microarray, purified IgG, trimeric HA.
Assay [13] concerns the target recombinant homotrimeric HA A/Japan/305/57 H2N2 (Influenza A virus A/Japan/305/1957(H2N2)). As to the kind of experiment: protein microarray, purified IgG, trimeric HA.
The target in assay [14] is recombinant soluble homotrimeric HA of A/chicken/Vietnam/NCVD-016/08 (H5N1) (Influenza A virus A/chicken/Vietnam/NCVD-016/2008(H5N1)). As to the kind of experiment: HA microarray, BCC supernatant.
Assay [15] deals with recombinant soluble homotrimeric HA of A/Anhui/1/05 (H5N1) (Influenza A virus A/Anhui/1/2005(H5N1)). As to the kind of experiment: HA microarray, BCC supernatant.
The target of assay [16] is recombinant soluble homotrimeric HA of A/Vietnam/1203/04 (H5N1) (Influenza A virus A/VietNam/1203/2004(H5N1)). As to the kind of experiment: HA microarray, BCC supernatant.
Assay [17] has as its target recombinant soluble homotrimeric HA of A/northern shoveler/California/HKWF115/07 (H6) (Influenza A virus A/northern shoveler/California/HKWF115/2007(H6N1)). As to the kind of experiment: HA microarray, BCC supernatant.
The target in assay [18] is recombinant soluble homotrimeric HA of A/swine/Ontario/01911-2/99 (H4N6) (Influenza A virus A/Swine/Ontario/01911-2/99 (H4N6)). As to the kind of experiment: HA microarray, BCC supernatant.
The target of assay [19] is recombinant soluble homotrimeric HA of A/Japan/305/57 (H2N2) (Influenza A virus A/Japan/305/1957(H2N2)). As to the kind of experiment: HA microarray, BCC supernatant.
Assay [20] has as its target recombinant soluble homotrimeric HA of A/Wisconsin/67/05 (H3N2) (Influenza A virus A/Wisconsin/67/2005(H3N2)). As to the kind of experiment: HA microarray, BCC supernatant.
The target in assay [21] is recombinant soluble homotrimeric HA of A/Netherlands/219/03 (H7N7) (Influenza A virus A/Netherlands/219/03(H7N7)). As to the kind of experiment: HA microarray, BCC supernatant.
The target of assay [22] is recombinant soluble homotrimeric HA of A/Solomon Islands/3/06 (H1N1) (Influenza A virus A/Solomon Islands/3/2006(H1N1)). As to the kind of experiment: HA microarray, BCC supernatant.
In assay [23] the target is recombinant homotrimeric HA A/Egypt/3300-NAMRU3/08 H5N1 (Influenza A virus A/Egypt/3300-NAMRU3/2008(H5N1)). As to the kind of experiment: protein microarray, purified IgG, trimeric HA.
The target of assay [24] is recombinant homotrimeric HA A/Indonesia/5/05 H5N1 (Influenza A virus A/Indonesia/5/2005(H5N1)). As to the kind of experiment: protein microarray, purified IgG, trimeric HA.
Assay [25] concerns the target recombinant soluble homotrimeric HA of A/Indonesia/5/05 (H5N1) (Influenza A virus A/Indonesia/5/2005(H5N1)). As to the kind of experiment: HA microarray, BCC supernatant.
The target of assay [26] is recombinant soluble homotrimeric HA of A/California/4/09 (H1N1) (Influenza A virus A/California/04/2009(H1N1)). As to the kind of experiment: HA microarray, BCC supernatant.
For assay [27], the target named is recombinant soluble homotrimeric HA of A/duck/Yangzhou/02/05 (H8N4) (Influenza A virus A/duck/Yangzhou/02/2005(H8N4)). As to the kind of experiment: HA microarray, BCC supernatant.

B1: TCN-539 (5056_A08) (antibody, V domains shown)
VH: QVQLVESGGGVVQPGRSLRLSCAASEITFITYAMHWVRQAPGKGLEWVALISDDGSNKFYADSVKGRFTISRDNSKNTLYLQMNSLRAEDTAAYYCAREGVYFDSGTYRGYFDYWGQETLVTVSS
VL: EIVLTQSPATLSLSPGERATLSCRASQSVSSYLAWYQQKPGQAPRLLIYDASNRATGIPARFSGSGSGTDFTLTISSLEPEDFAVYYCQQRSHWPPITFGQGTRLEIK
For B1, the Trimeric HA Binding: RLU in assay [1] stood at 60 RLU; in [2] it was 124 RLU; in assay [3], 416 RLU; in assay [4], 1060 RLU; in assay [5], 140 RLU; in [6] it was 129 RLU. Besides, the Trimeric HA Binding: RLU in [7] came out at 570 RLU; in [8], 8850 RLU; in [9] it was 636 RLU; in assay [10], 144 RLU; in [11] it was 103 RLU; in [12] it was 161 RLU. In addition, the Trimeric HA Binding: RLU in assay [13] came out at 544 RLU; in assay [14], 100 RLU; in [15], 91 RLU; in assay [16] it was 545 RLU; in assay [17], 814 RLU; in assay [18] it was 1580 RLU. Also, the Trimeric HA Binding: RLU in assay [19] was 468 RLU; in [20], 715 RLU; in [21] it was 1700 RLU; in assay [22], 239 RLU.

B2: TCN-555 (5246_L16) (antibody, V domains shown)
VH: QVQLVQSGAEVKRPGSSVKVSCTASGGIFRKNAISWVRQAPGQGLEWMGGIIAVFNTANYAQKFQNRVKITADESGNTAYMELSSLTSDDTAVYYCASHPKYFYGSGSYPDFWGQGTLVTVSS
VL: QSALTQPRSVSGSPGQSITISCTGGSSDIGASNSVSWYQQHPGKAPKLVIFDVTERPSGVPHRFSGSKSGNTASLTVSGLQPDDEADYFCCAYGGKYLVVFGGGTKVTVL
Regarding B2, the Trimeric HA Binding: RLU in assay [1] was 13700 RLU; in [2] it was 15600 RLU; in [3] it was 3440 RLU; in assay [4], 17900 RLU; in [5], 302 RLU; in assay [6], 25500 RLU. Further, the Trimeric HA Binding: RLU was determined as 6630 RLU in assay [7]; 369 RLU in assay [8]; 26500 RLU in [9]; 4420 RLU in assay [10]; 13100 RLU in [11]; 20200 RLU in assay [23]. Further, the Trimeric HA Binding: RLU was found to be 1330 RLU in assay [12]; 15600 RLU in [24]; 10700 RLU in assay [13]; 22300 RLU in assay [14]; 1500 RLU in [15]; 876 RLU in assay [16]. Besides, the Trimeric HA Binding: RLU in [17] is 49500 RLU; in assay [25], 34500 RLU; in [26], 44900 RLU; in [27], 18400 RLU; in assay [19], 2130 RLU; in [20], 9800 RLU. Moreover, the Trimeric HA Binding: RLU in assay [21] was determined as 3400 RLU; in [22] it was 26400 RLU.

B3: TCN-563 (5237_B21) (antibody, V domains shown)
VH: QVQLAQSGAEVKRPGSSVKVSCTASGGIFRKNAISWVRQAPGQGLEWMGGIIAVFNTANYAQKFQGRVKITADESGNTAYMELSSLRSDDTAVYYCASHPKYFYGSGSYPDFWGQGTLVTVSS
VL: QSALTQPRSVSGSPGQSVTISCTGSSSDVGASNSVSWYQQHPGKAPKLVIYDVTERPSGVPHRFSGSKSGNTASLTVSGLQPEDEADYFCCAYGGKYLVVFGGGTKVTVL
For the molecule B3, the Trimeric HA Binding: RLU in assay [14] is 41000 RLU; in assay [15], 9580 RLU; in assay [16], 4840 RLU; in [17], 27300 RLU; in assay [25], 39500 RLU; in assay [26], 45200 RLU. Besides, the Trimeric HA Binding: RLU in assay [27] was determined as 46700 RLU; in [18], 4500 RLU; in [19], 6610 RLU; in [20], 40800 RLU; in [21], 7520 RLU; in assay [22] it was 30000 RLU.

B4: TCN-552 (5249_I23) (antibody, V domains shown)
VH: QVQVVQSGAEVKKPGSSVRVSCQASGGTFMNYAIIWVRRAPGQGLEWMGGIIPVFPTPNYAQMFQGRVTISTDESRSTSFLELTNLRYEDTAVYYCARRIYHGGNSGFDFWGQGTLVTVSS
VL: EIVLTQSPATLSLSPGERATLSCRASQSVGNYLAWYQQKPGQAPRLLIYDSSNRAPGIPARFSGSGSGTDFTLTISSLAPEDFAVYYCQQRSKWPPMYSFGHGTKLEIK
Turning to B4, the Trimeric HA Binding: RLU is 14200 RLU in assay [1]; 8970 RLU in assay [2]; 19400 RLU in assay [4]; 161 RLU in assay [5]; 23900 RLU in assay [6]; 4520 RLU in [7]. Further, the Trimeric HA Binding: RLU worked out at 123 RLU in [8]; 27000 RLU in [9]; 4300 RLU in assay [10]; 16200 RLU in assay [11]; 20300 RLU in assay [23]; 470 RLU in [12]. The Trimeric HA Binding: RLU in [24] came out at 23600 RLU; in assay [13] it was 24700 RLU; in [14] it was 46200 RLU; in assay [15], 4160 RLU; in [16], 2730 RLU; in assay [17] it was 38400 RLU. For the same molecule, the Trimeric HA Binding: RLU in assay [25] amounted to 43600 RLU; in [26], 35300 RLU; in assay [27], 13100 RLU; in [19], 23800 RLU; in assay [20], 14800 RLU; in [21] it was 1240 RLU. Further, the Trimeric HA Binding: RLU in assay [22] amounted to 39300 RLU.
